Experimental findings from patent publication US20120301404A1 are described below.

Experiment [1] deals with PIF receptor (mouse; C2C12 membranes and mouse tissue plasma membranes) (mouse (C2C12 myotubes)). The experiment in a line: cell-based or functional assay.
Experiment [2] addresses PIF receptor (pig sarcolemma membranes) (pig). The experiment is described as follows: Scatchard analysis of [35S]PIF binding to pig sarcolemma membranes, first site.
Experiment [3] shares this target. The experiment in a line: Scatchard analysis of [35S]PIF binding to pig sarcolemma membranes, second site.
In experiment [4] the target is PIF receptor (mouse; C2C12 membranes and mouse tissue plasma membranes) (mouse (C2C12 myotubes)). The experiment in a line: Scatchard analysis of [35S]PIF binding to mouse heart plasma membranes, first site.
Experiment [5] has the same target. The experiment is described as follows: Scatchard analysis of [35S]PIF binding to mouse liver plasma membranes, first site.
Experiment [6] has the same target. The experiment in a line: Scatchard analysis of [35S]PIF binding to mouse heart plasma membranes, second site.
For experiment [7] the target is unchanged. The experiment in a line: Scatchard analysis of [35S]PIF binding to mouse liver plasma membranes, second site.
Experiment [8] addresses PIF receptor (human muscle cell line Hs94MU membranes) (human). The experiment is described as follows: Scatchard analysis of [35S]PIF binding to Hs94MU human muscle cell membranes, first site.
Experiment [9] has the same target. The experiment in a line: Scatchard analysis of [35S]PIF binding to Hs94MU human muscle cell membranes, second site.
For experiment [10], the target named is PIF receptor (mouse; C2C12 membranes and mouse tissue plasma membranes) (mouse (C2C12 myotubes)). The experiment is described as follows: Scatchard analysis of [35S]PIF binding to mouse soleus muscle plasma membranes, first site.
For experiment [11] the target is unchanged. The experiment in a line: Scatchard analysis of [35S]PIF binding to mouse soleus muscle plasma membranes, second site.
The target is the same in experiment [12]. The experiment is described as follows: Scatchard analysis of [35S]PIF binding to mouse gastrocnemius muscle sarcolemma membranes, first site.
Experiment [13] shares this target. The experiment is described as follows: Scatchard analysis of [35S]PIF binding to C2C12 membranes, second site (column headed Kaff2 x 10^-9 M).
Experiment [14] shares this target. The experiment is described as follows: Scatchard analysis of [35S]PIF binding to mouse gastrocnemius muscle sarcolemma membranes, second site.
The target is the same in experiment [15]. The experiment in a line: comparison of the affinity of PIF for muscle cell binding sites with its affinity for the MAC16 monoclonal antibody.
The target is the same in experiment [16]. The experiment in a line: Scatchard analysis of [35S]PIF binding to C2C12 membranes, first site (column headed Kaff x 10^-10 M; text calls it Kd).
Experiment [17] has as its target Proteolysis Inducing Factor (PIF) (mouse (MAC16 cells)). The experiment is described as follows: cell-based or functional assay.

In [1], “Proteolysis Inducing Factor (PIF) (ligand)” came in with an increased rate of protein degradation in C2C12 myoblasts over 24 and 48 h, effective concentrations of 0.14 to 1.4 nM. Further, in experiment [1], the rate of protein degradation (release of L-[2,6-3H]phenylalanine) in C2C12 myoblasts, concentration of maximal effect at 6 h is 0.98 to 1.4 nM. The equilibrium dissociation constant (Kd) (usually the equilibrium constant for the complex coming apart) was found to be 0.47 nM in [2]; 8.2 nM in [3]; 0.3 nM in [4]; 0.69 nM in experiment [5]; 2.3 nM in experiment [6]; 0.2 nM in experiment [7]. Further, the Kd in [8] was found to be 0.11 nM; in experiment [9], 1.7 nM; in experiment [10] it was 0.01 nM; in experiment [11], 0.12 nM; in experiment [12], 0.52 nM; in experiment [13] it was 1.2 nM. Further, the Kd in [14] was 0.1 nM; in experiment [16] it was 0.14 nM. The molecule also displayed a fold greater affinity than binding to a monoclonal antibody in experiment [15] of 10 to 100 fold.
Take DINGGGATLPQPLYQTAAVLTAGFA [N-terminal synthetic peptide of the PIF receptor (peptide of SEQ ID No. 1)]: in experiment [17], the PIF-induced increase in chymotrypsin-like enzyme activity was determined as 10 µM and the PIF-induced protein degradation in murine myotubes turned out to be 10 µM.
